Sequences and labels used below:
B1: major capsid protein pb8 of bacteriophage T5 (natural protein, UniProt Q6QGD8 160-458, looked up)
chain: AVNQSSSVEVSSESYETIFSQRIIRDLQKELVVGALFEELPMSSKILTMLVEPDAGKATWVAASTYGTDTTTGEEVKGALKEIHFSTYKLAAKSFITDETEEDAIFSLLPLLRKRLIEAHAVSIEEAFMTGDGSGKPKGLLTLASEDSAKVVTEAKADGSVLVTAKTISKLRRKLGRHGLKLSKLVLIVSMDAYYDLLEDEEWQDVAQVGNDSVKLQGQVGRIYGLPVVVSEYFPAKANSAEFAVIVYKDNFVMPRQRAVTVERERQAGKQRDAYYVTQRVNLQRYFANGVVSGTYAAS
notes: major capsid protein (head protein) pb8 of bacteriophage T5, after its N-terminal scaffolding domain is cleaved off by the protease pb11; as a hexamer of the expanded capsid; Hexamer within the capsid lattice; the deposited model 5TJT is a homology model flexibly fitted into the cryo-EM map; also called head protein
B2: decoration protein pb10 of bacteriophage T5, full-length, fused to a C-terminal histidine tag (natural protein, UniProt Q6QGD6 1-164, looked up)
chain: MIDYSGLRTIFGEKLPESHIFFATVAAHKYVPSYAFLRRELGLSSAHTNRKVWKKFVEAYGKAIPPAPPAPPLTLSKDLTASMSVEEGAALTLSVTATGGTGPYTYAWTKDGSPIPDASGATYTKPTAAAEDAGSYKVTVTDSKQVSKDSTTCAVTVNPTVPGG
notes: decoration protein pb10 of bacteriophage T5, 164 amino acids, GenBank AAU05286; Monomer by SEC-MALLS (17 kDa); 18.3 kDa with the His tag; also called pb10-His; His-tagged pb10; source: pET28b expression vector, purified (expression and purification detailed in SI); not shown: His-Tag, C-terminal, kept
B3: pb10 Y34A-R38E (natural protein)
chain: B2 chain with Y34A, R38E
B4: pb10 R38E (natural protein)
chain: B2 chain with R38E
B5: pb10 F36A-R38A (natural protein)
chain: B2 chain with F36A, R38A
B6: pb10 R38A (natural protein)
chain: B2 chain with R38A
B7: pb10 F36A (natural protein)
chain: B2 chain with F36A
B8: pb10 F36A-R38E (natural protein)
chain: B2 chain with F36A, R38E
B9: pb10 N-terminal domain (NTD), residues 1 to 77 (domain or fragment)
chain: MIDYSGLRTIFGEKLPESHIFFATVAAHKYVPSYAFLRRELGLSSAHTNRKVWKKFVEAYGKAIPPAPPAPPLTLSK

Residue numbers refer to the chain shown, from its start. Numbers in names are those of the source.

Data set [1] deals with the molecule itself. The data set can be described thus: cryo-EM structure; icosahedral reconstructions of empty expanded capsids with pb10 (9 Å) and without pb10 (8 Å); pb8 homology model fitted into the hexamer density.
Data set [2] addresses bacteriophage T5 empty expanded capsid (without pb10) (bacteriophage T5). The data set can be described thus: SPR; as a3 but PBS containing 750 mM NaCl; koff set at 2 x 10^-4 s^-1; single experiment. A general note: SPR reads the build-up and loss of mass on a sensor chip optically.
Target sequence in this assay (Q6QGD5 11-403 limits assumed): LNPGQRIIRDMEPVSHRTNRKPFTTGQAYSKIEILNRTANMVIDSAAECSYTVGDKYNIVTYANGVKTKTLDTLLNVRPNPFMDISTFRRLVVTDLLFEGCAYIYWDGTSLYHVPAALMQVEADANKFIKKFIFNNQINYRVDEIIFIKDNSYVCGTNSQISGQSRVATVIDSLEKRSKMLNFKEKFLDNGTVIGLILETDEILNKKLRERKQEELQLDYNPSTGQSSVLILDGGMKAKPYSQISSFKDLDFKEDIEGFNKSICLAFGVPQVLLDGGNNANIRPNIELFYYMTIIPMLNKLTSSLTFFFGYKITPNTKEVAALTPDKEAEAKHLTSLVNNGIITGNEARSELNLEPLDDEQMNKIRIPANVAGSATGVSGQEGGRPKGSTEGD
Data set [3] shares this target. In words: SPR; T200, 25 °C, PBS (137 mM NaCl) with 1 mg/mL BSA; expanded capsids captured on a CM5 chip through immobilised rabbit anti-capsid antibodies; pb10 variants 0.09 to 40 nM injected at 50 uL/min; koff set at 2 x 10^-4 s^-1 for all proteins; global fit to a Langmuir mass transport-limited model.
For data set [4] the target is unchanged. In words: SPR; as a3 but PBS containing 500 mM NaCl; koff set at 2 x 10^-4 s^-1; single experiment.
Target sequence in this assay (Q6QGD5 11-403 limits assumed): as above
In data set [5] the target is B1. In words: cryo-EM structure; icosahedral reconstructions of empty expanded capsids with pb10 (9 Å) and without pb10 (8 Å); pb8 homology model fitted into the hexamer density. The settings on record: both partners purified.
Data set [6] addresses bacteriophage T5 empty expanded capsid (without pb10) (bacteriophage T5). The data set can be described thus: SPR; as a3 but PBS containing 300 mM NaCl; koff set at 2 x 10^-4 s^-1; single experiment.
Target sequence in this assay (Q6QGD5 11-403 limits assumed): as above

For B1, the stoichiometry N (in general, a count of units in the complex or per binding partner) in data set [1] came out at 6.
Take B2: in data set [2], the Kd (commonly the free concentration of one partner at which half of the binding sites on the other are occupied at equilibrium, for simple one-to-one binding) stood at 22.2 pM; the off-rate (koff) (commonly the first-order rate constant of dissociation) is 0.0002 s⁻¹; the kon (usually the second-order rate constant of association) was 9.01e+06 M⁻¹ s⁻¹. In data set [3], this molecule had a Kd of 1.11 pM, a koff of 0.0002 s⁻¹, a kon of 1.8e+08 M⁻¹ s⁻¹ and a maximum mass increase of the capsid on decoration of 8%. This molecule also had a signal decrease over 700 s of dissociation in data set [3] of 7%. In data set [4], this molecule came in with a Kd of 4.2 pM, a koff of 0.0002 s⁻¹ and an on-rate (kon) of 4.76e+07 M⁻¹ s⁻¹. Besides, in data set [5], the binding result was “binds”. For the same molecule, in data set [6], the dissociation constant Kd worked out at 1.8 pM, the koff came out at 0.0002 s⁻¹ and the kon is 1.11e+08 M⁻¹ s⁻¹.
As to B3, in data set [3], the Kd was found to be 480 pM, the koff stood at 0.0002 s⁻¹ and the kon was 417000 M⁻¹ s⁻¹.
In the case of B4, in data set [3], the Kd was determined as 2.36 pM, the koff was 0.0002 s⁻¹ and the on-rate constant (kon) was found to be 8.47e+07 M⁻¹ s⁻¹.
In data set [3], B5 displayed a Kd of 3.27 pM, a koff of 0.0002 s⁻¹ and a kon of 6.11e+07 M⁻¹ s⁻¹.
Turning to B6, in data set [3], the Kd turned out to be 1.67 pM, the koff came out at 0.0002 s⁻¹ and the kon was determined as 1.2e+08 M⁻¹ s⁻¹.
In data set [3], B7 showed a Kd of 0.23 pM, an off-rate (koff) of 0.0002 s⁻¹ and a kon of 8.66e+08 M⁻¹ s⁻¹.
On the same counts, the results for B8 are 10.3 pM, 0.0002 s⁻¹ and 1.95e+07 M⁻¹ s⁻¹.
In data set [3], B9 registered an equilibrium dissociation constant (Kd) of 0.55 pM, a koff of 0.0002 s⁻¹ and a kon of 3.62e+08 M⁻¹ s⁻¹.

For the origin of these results see publication PMC5292684, “High affinity anchoring of the decoration protein pb10 onto the bacteriophage T5 capsid” (Scientific Reports, 2017).
